Measurements taken from patent US20220119534A1 (DRAGONFLY THERAPEUTICS, published 2022).
Where “and” joins values, the source holds several entries; their conditions need not be identical. Identical values can stand only once. Each block holds one binder with its values, some of them ahead of it.

Legend:
[1] = molecular target: T1, mFc-hNKG2D (human, UniProt P26718 73-216); assay: SPR Biacore 8K 37 C; mFc-hNKG2D captured on anti-mFc chip, TriNKET as analyte; 1:1 kinetic fit; after 0.02% H2O2 24 h
T1 construct: extracellular domain; Made in house (Dragonfly Tx); the order of tag and ECD follows the name mFc-hNKG2D; also called mFc-tagged human NKG2D; not shown: mouse Fc tag
T1 sequence (looked up): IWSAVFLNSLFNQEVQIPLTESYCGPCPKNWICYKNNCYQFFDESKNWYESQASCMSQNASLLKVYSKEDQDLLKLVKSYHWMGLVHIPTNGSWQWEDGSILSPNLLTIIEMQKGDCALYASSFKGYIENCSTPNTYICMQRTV

[2] = molecular target: T1, mFc-hNKG2D; assay: SPR Biacore 8K 37 C; mFc-hNKG2D captured on anti-mFc chip, TriNKET as analyte; steady state fit; after 0.02% H2O2 24 h
[3] = molecular target: T1, mFc-hNKG2D; assay: SPR Biacore 8K 37 C; mFc-hNKG2D captured on anti-mFc chip, TriNKET as analyte; steady state fit; control sample, n=3
[4] = molecular target: T2, Human CLEC12A-His (human, UniProt Q5QGZ9 65-265); assay: SPR Biacore 8K 37 C; TriNKET captured on anti-hFc chip, hCLEC12A-His as analyte; 1:1 fit; control sample, n=2
T2 construct: Recombinant soluble protein made in house (Dragonfly Tx); The hCLEC12A spot of the HuProt array is written under this molecule as well; also called hCLEC12A-His; hCLEC12A; not shown: His tag
T2 sequence: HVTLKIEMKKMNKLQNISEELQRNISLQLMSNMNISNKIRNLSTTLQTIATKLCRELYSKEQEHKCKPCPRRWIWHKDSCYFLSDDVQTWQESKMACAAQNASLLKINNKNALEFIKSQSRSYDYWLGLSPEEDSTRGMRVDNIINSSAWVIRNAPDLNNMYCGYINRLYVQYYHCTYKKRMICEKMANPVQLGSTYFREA

[5] = molecular target: T1, mFc-hNKG2D; assay: SPR Biacore 8K 37 C; mFc-hNKG2D captured on anti-mFc chip, TriNKET as analyte; 1:1 kinetic fit; control, n=3
[6] = molecular target: T3, Human CD64 (human, UniProt P12314 16-288, biotinylated); assay: SPR, human CD64 captured
T3 construct: Bought recombinant receptor; also called hFcγRI; Human CD64 (FcγRI)
T3 sequence (P12314 16-288 limits assumed): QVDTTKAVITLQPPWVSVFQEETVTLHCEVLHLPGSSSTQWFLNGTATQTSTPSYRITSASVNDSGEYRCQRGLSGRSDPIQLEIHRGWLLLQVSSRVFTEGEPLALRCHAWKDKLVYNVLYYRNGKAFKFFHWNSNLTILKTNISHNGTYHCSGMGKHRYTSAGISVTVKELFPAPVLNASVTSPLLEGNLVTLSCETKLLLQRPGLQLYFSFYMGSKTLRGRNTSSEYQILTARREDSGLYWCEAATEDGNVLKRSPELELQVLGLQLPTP

[7] = molecular target: T4, human CLEC12A on cells (HL60, PL21, Ba/F3-hCLEC12A) (human, UniProt Q5QGZ9 1-265); assay: flow cytometry, Ba/F3-hCLEC12A cells
T4 construct: Endogenous on the AML lines HL60 and PL21; brought into mouse Ba/F3 cells by retroviral transduction; The cell line stands under assay; also called CLL-1
T4 sequence: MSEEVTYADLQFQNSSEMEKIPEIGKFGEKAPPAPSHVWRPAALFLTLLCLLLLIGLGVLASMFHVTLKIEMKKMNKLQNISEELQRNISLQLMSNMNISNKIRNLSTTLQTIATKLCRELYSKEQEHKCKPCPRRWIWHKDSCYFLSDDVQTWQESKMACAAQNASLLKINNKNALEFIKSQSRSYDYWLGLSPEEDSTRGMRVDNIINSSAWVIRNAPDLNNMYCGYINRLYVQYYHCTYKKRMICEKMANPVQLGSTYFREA

[8] = molecular target: T5, recombinant human FcRn (human, UniProt P55899 24-297; P61769 21-119); assay: SPR 25C, pH 6.0, steady state, average; pH 6.0; average of four replicates
T5 construct: also called hFcRn

Kd [1]: 0.722 µM | koff [1]: 0.107 s⁻¹ | kon [1]: 148000 M⁻¹ s⁻¹ | Kd [2]: 0.732 µM | Kd [3]: 0.664 µM | Kd [4]: 0.0012 µM | koff [4]: 0.000933 s⁻¹ | kon [4]: 779000 M⁻¹ s⁻¹ | Kd [5]: 0.714 µM | koff [5]: 0.146 s⁻¹ | kon [5]: 206000 M⁻¹ s⁻¹
B1: F3'-1602 TriNKET (bispecific antibody, human IgG1, kappa)
chain: QLQLQESGPGLVKPSETLSLTCTVSGFSLTNYGLHWIRQPPGKCLEWIGVIWSGGKTDYNPSLKSRVTISKDTSKNQFSLKLSSVQAADTAVYYCAKYDYDDSLDYWGQGTLVTVSSGGGGSGGGGSGGGGSGGGGSDIQMTQSPSSLSASVGDRVTITCHASQNINFWLSWYQQKPGKAPKLLIYEASNLHTGVPSRFSGSGSGTRFTLTISSLQPEDIATYYCQQSHSYPLTFGCGTKLEIKGSDKTHTCPPCPAPELLGGPSVFLFPPKPKDTLMISRTPEVTCVVVDVSHEDPEVKFNWYVDGVEVHNAKTKPREEQYNSTYRVVSVLTVLHQDWLNGKEYKCKVSNKALPAPIEKTISKAKGQPREPRVYTLPPCRDELTKNQVSLTCLVKGFYPSDIAVEWESNGQPENNYKTTPPVLVSDGSFTLYSKLTVDKSRWQQGNVFSCSVMHEALHNHYTQKSLSLSPG
heavy: EVQLVESGGGLVKPGGSLRLSCAASGFTFSSYSMNWVRQAPGKGLEWVSSISSSSSYIYYADSVKGRFTISRDNAKNSLYLQMNSLRAEDTAVYYCARGAPIGAAAGWFDPWGQGTLVTVSSASTKGPSVFPLAPSSKSTSGGTAALGCLVKDYFPEPVTVSWNSGALTSGVHTFPAVLQSSGLYSLSSVVTVPSSSLGTQTYICNVNHKPSNTKVDKKVEPKSCDKTHTCPPCPAPELLGGPSVFLFPPKPKDTLMISRTPEVTCVVVDVSHEDPEVKFNWYVDGVEVHNAKTKPREEQYNSTYRVVSVLTVLHQDWLNGKEYKCKVSNKALPAPIEKTISKAKGQPREPQVCTLPPSRDELTENQVSLTCLVKGFYPSDIAVEWESNGQPENNYKTTPPVLDSDGSFFLYSWLTVDKSRWQQGNVFSCSVMHEALHNHYTQKSLSLSPG
light: DIQMTQSPSSVSASVGDRVTITCRASQGISSWLAWYQQKPGKAPKLLIYAASSLQSGVPSRFSGSGSGTDFTLTISSLQPEDFATYYCQQGVSFPRTFGGGTKVEIKRTVAAPSVFIFPPSDEQLKSGTASVVCLLNNFYPREAKVQWKVDNALQSGNSQESVTEQDSKDSTYSLSSTLTLSKADYEKHKVYACEVTHQGLSSPVTKSFNRGEC
notes: Trispecific F3' format: CLEC12A scFv-Fc paired with NKG2D Fab-Fc; Stressed and control samples of the stability studies are the same molecule; also called AB0237

Kd [6]: 0.0061 µM and 0.0055 µM and 0.0035 µM | koff [6]: 0.00029 s⁻¹ and 0.00026 s⁻¹ and 0.00018 s⁻¹ | kon [6]: 47000 M⁻¹ s⁻¹ and 52000 M⁻¹ s⁻¹ | EC50 [7]: 0.00133 µM | FOB (fold over background) [7]: 325 fold
B2: AB0192 TriNKET (other)
chain: EVQLVESGGGVVQPGGSLRLSCAASGFTFNAFGMHWVRQAPGKCLEWVAFISSGSTSIYYANTVKGRFTISRDNSKNTLYLQMNSLRAEDTAVYYCARDGYPTGGAMDYWGQGTSVTVSSGGGGSGGGGSGGGGSGGGGSDIQMTQSPSSLSASVGDRVTITCKASQDIYNYLSWFQQKPGKAPKPLIYRANILVSGVPSRFSGSGSGQDYTFTISSLQPEDIATYYCLQFDAFPFTFGCGTKLEIKGSDKTHTCPPCPAPELLGGPSVFLFPPKPKDTLMISRTPEVTCVVVDVSHEDPEVKFNWYVDGVEVHNAKTKPREEQYNSTYRVVSVLTVLHQDWLNGKEYKCKVSNKALPAPIEKTISKAKGQPREPRVYTLPPCRDELTKNQVSLTCLVKGFYPSDIAVEWESNGQPENNYKTTPPVLVSDGSFTLYSKLTVDKSRWQQGNVFSCSVMHEALHNHYTQKSLSLSPG
heavy: EVQLVESGGGLVKPGGSLRLSCAASGFTFSSYSMNWVRQAPGKGLEWVSSISSSSSYIYYADSVKGRFTISRDNAKNSLYLQMNSLRAEDTAVYYCARGAPIGAAAGWFDPWGQGTLVTVSSASTKGPSVFPLAPSSKSTSGGTAALGCLVKDYFPEPVTVSWNSGALTSGVHTFPAVLQSSGLYSLSSVVTVPSSSLGTQTYICNVNHKPSNTKVDKKVEPKSCDKTHTCPPCPAPELLGGPSVFLFPPKPKDTLMISRTPEVTCVVVDVSHEDPEVKFNWYVDGVEVHNAKTKPREEQYNSTYRVVSVLTVLHQDWLNGKEYKCKVSNKALPAPIEKTISKAKGQPREPQVCTLPPSRDELTENQVSLTCLVKGFYPSDIAVEWESNGQPENNYKTTPPVLDSDGSFFLYSWLTVDKSRWQQGNVFSCSVMHEALHNHYTQKSLSLSPG
light: DIQMTQSPSSVSASVGDRVTITCRASQGISSWLAWYQQKPGKAPKLLIYAASSLQSGVPSRFSGSGSGTDFTLTISSLQPEDFATYYCQQGVSFPRTFGGGTKVEIKRTVAAPSVFIFPPSDEQLKSGTASVVCLLNNFYPREAKVQWKVDNALQSGNSQESVTEQDSKDSTYSLSSTLTLSKADYEKHKVYACEVTHQGLSSPVTKSFNRGEC
notes: the condition stands under assay; also called AB0192 Lot AB0192-005

Kd [8]: 1.4 µM
B3: F3'-1602 TriNKET (other)
chain: QLQLQESGPGLVKPSETLSLTCTVSGFSLTNYGLHWIRQPPGKCLEWIGVIWSGGKTDYNPSLKSRVTISKDTSKNQFSLKLSSVQAADTAVYYCAKYDYDDSLDYWGQGTLVTVSSGGGGSGGGGSGGGGSGGGGSDIQMTQSPSSLSASVGDRVTITCHASQNINFWLSWYQQKPGKAPKLLIYEASNLHTGVPSRFSGSGSGTRFTLTISSLQPEDIATYYCQQSHSYPLTFGCGTKLEIKGSDKTHTCPPCPAPELLGGPSVFLFPPKPKDTLMISRTPEVTCVVVDVSHEDPEVKFNWYVDGVEVHNAKTKPREEQYNSTYRVVSVLTVLHQDWLNGKEYKCKVSNKALPAPIEKTISKAKGQPREPRVYTLPPCRDELTKNQVSLTCLVKGFYPSDIAVEWESNGQPENNYKTTPPVLVSDGSFTLYSKLTVDKSRWQQGNVFSCSVMHEALHNHYTQKSLSLSPG
heavy: EVQLVESGGGLVKPGGSLRLSCAASGFTFSSYSMNWVRQAPGKGLEWVSSISSSSSYIYYADSVKGRFTISRDNAKNSLYLQMNSLRAEDTAVYYCARGAPIGAAAGWFDPWGQGTLVTVSSASTKGPSVFPLAPSSKSTSGGTAALGCLVKDYFPEPVTVSWNSGALTSGVHTFPAVLQSSGLYSLSSVVTVPSSSLGTQTYICNVNHKPSNTKVDKKVEPKSCDKTHTCPPCPAPELLGGPSVFLFPPKPKDTLMISRTPEVTCVVVDVSHEDPEVKFNWYVDGVEVHNAKTKPREEQYNSTYRVVSVLTVLHQDWLNGKEYKCKVSNKALPAPIEKTISKAKGQPREPQVCTLPPSRDELTENQVSLTCLVKGFYPSDIAVEWESNGQPENNYKTTPPVLDSDGSFFLYSWLTVDKSRWQQGNVFSCSVMHEALHNHYTQKSLSLSPG
light: DIQMTQSPSSVSASVGDRVTITCRASQGISSWLAWYQQKPGKAPKLLIYAASSLQSGVPSRFSGSGSGTDFTLTISSLQPEDFATYYCQQGVSFPRTFGGGTKVEIKRTVAAPSVFIFPPSDEQLKSGTASVVCLLNNFYPREAKVQWKVDNALQSGNSQESVTEQDSKDSTYSLSSTLTLSKADYEKHKVYACEVTHQGLSSPVTKSFNRGEC
notes: CLEC12A scFv-Fc, NKG2D A49MI Fab-Fc, human IgG1 Fc; also called AB0237
